Residue numbers refer to the chain shown, from its start.
B1: 535 (protein)
chain: LDNGLARTPTMGWLHWERFMCNLDCQEEPDSCISEKLFMEMAERMVSEGWKDAGYEYLCIDDCWMAPQRDSEGRLQADPQRFPHGIRQLANHVHSKGLKLGIYADVGNKTCAGFPGSFGYYDIDAQTFADWGVDLLKFDGCYCDSLENLADGYKHMSLALNRTGRSIVYSCEWPLYMWPFQTPNYTEIRQYCNHWRNFADIDDSWASIKSILDWTSRNQERIVDVAGPGGWNDPDMLVIGNFGLSWDQQVTQMALWAIMAAPLFMSNDLRHISPQAKALLQDKDVIAINQDPLGKQGYQLRKGDNFEVWERPLSGDAWAVAIINRQEIGGPRSYTIPVASLGKGVACNPACFITQLLPVKRQLGFYNWTSRLKSHINPTGTVLLQLENTMQMSLKDLL
modifications: Synthetic Polypeptide sequence of Variant No. 535 of mature Human GLA
B2: 538 (protein)
chain: B1 chain with T182K, A287C
modifications: Synthetic Polypeptide sequence of Variant No. 538 of mature Human GLA
B3: 536 (protein)
chain: B1 chain with T182V
modifications: Synthetic Polypeptide sequence of Variant No. 536 of mature Human GLA
B4: 539 (protein)
chain: B1 chain with T182K, A287H
modifications: Synthetic Polypeptide sequence of Variant No. 539 of mature Human GLA
B5: 537 (protein)
chain: B1 chain with T182Y
modifications: Synthetic Polypeptide sequence of Variant No. 537 of mature Human GLA
B6: 540 (protein)
chain: B1 chain with T182K, A287M
modifications: Synthetic Polypeptide sequence of Variant No. 540 of mature Human GLA

Experiment: HTP-analysis of supernatants pretreated with base (MUGal hydrolysis)
Format: biochemical
Conditions: activity of the variant/activity of Rd3BB (SEQ ID NO: 13); challenge at pH 9.7
Summary of the method: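 GLA variants were secreted by transformed INVSc1 yeast grown 66-84 h at 30° C. Supernatants were exposed to neutral-to-basic buffers (pH 7.0-9.7) at 37° C for 1-18 h, then assayed with MUGal in acidic citrate/McIlvaine buffer, with fluorescence read after quenching.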

Molecule	Relative Activity of GLA Variants After Challenge at pH 9.7
B1	++ (++ = >5 to 10 relative activity over Rd3BB (SEQ ID NO: 13))
B2	+ (+ = 1.5 to 5 relative activity over Rd3BB (SEQ ID NO: 13))
B3	++ (++ = >5 to 10 relative activity over Rd3BB (SEQ ID NO: 13))
B4	++ (++ = >5 to 10 relative activity over Rd3BB (SEQ ID NO: 13))
B5	++ (++ = >5 to 10 relative activity over Rd3BB (SEQ ID NO: 13))
B6	++ (++ = >5 to 10 relative activity over Rd3BB (SEQ ID NO: 13))

Experiment: HTP-analysis of supernatants pretreated with acid (MUGal hydrolysis)
Format: biochemical
Conditions: activity of the variant/activity of Rd3BB (SEQ ID NO: 13); challenge at pH 3.7
Summary of the method: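 Fluorescence of MUGal hydrolysis (Ex. 355 nm, Em. 448 nm) is read after sodium carbonate quench. The enzyme source is INVSc1 yeast culture supernatant, first exposed to pH 3.3-4.3 McIlvaine buffer at 37° C. for 1-3 h, then reacted at pH 4.8 for 30-180 minutes.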

Molecule	Relative Activity of GLA Variants After Challenge at pH 3.7
B1	+ (+ = 1.5 to 5 relative activity over Rd3BB (SEQ ID NO: 13))
B2	+ (+ = 1.5 to 5 relative activity over Rd3BB (SEQ ID NO: 13))
B3	+ (+ = 1.5 to 5 relative activity over Rd3BB (SEQ ID NO: 13))
B4	+ (+ = 1.5 to 5 relative activity over Rd3BB (SEQ ID NO: 13))
B5	+ (+ = 1.5 to 5 relative activity over Rd3BB (SEQ ID NO: 13))
B6	+ (+ = 1.5 to 5 relative activity over Rd3BB (SEQ ID NO: 13))

Experiment: HTP-analysis of yeast culture supernatants, no challenge (MUGal hydrolysis)
Format: biochemical
Conditions: activity of the variant/activity of Rd3BB (SEQ ID NO: 13)
Summary of the method: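 GLA variants were expressed in INVSc1 yeast grown in SD-Ura broth with glucose at 30° C., and culture supernatants were collected after 66-84 h. Supernatant was mixed with McIlvaine buffer pH 4.8 and MUGal (2 mM stock) in 50 mM citrate, 200 mM KCl, pH 4.6, incubated at 37° C. for 30-180 minutes, then quenched with sodium carbonate.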

Molecule	Relative Activity of GLA Variants After No Challenge (NC)
B1	+ (+ = 1.5 to 5 relative activity over Rd3BB (SEQ ID NO: 13))
B2	+ (+ = 1.5 to 5 relative activity over Rd3BB (SEQ ID NO: 13))
B3	+ (+ = 1.5 to 5 relative activity over Rd3BB (SEQ ID NO: 13))
B4	+ (+ = 1.5 to 5 relative activity over Rd3BB (SEQ ID NO: 13))
B5	+ (+ = 1.5 to 5 relative activity over Rd3BB (SEQ ID NO: 13))
B6	+ (+ = 1.5 to 5 relative activity over Rd3BB (SEQ ID NO: 13))
